Measured values: patent US20150376261A1

Experiments:
Experiment in all cases: cell-based or functional assay
hβ1AR (human) = hβ1AR (human) (UniProt P08588)
β2AR365N (human) = β2AR365N (human) (UniProt P07550)
M2Δi3R (human) = M2Δi3R (human) (UniProt P08172)
Chain of M2Δi3R (human) (P08172 other isoform, or with tags, fused parts or gaps mutant limits assumed): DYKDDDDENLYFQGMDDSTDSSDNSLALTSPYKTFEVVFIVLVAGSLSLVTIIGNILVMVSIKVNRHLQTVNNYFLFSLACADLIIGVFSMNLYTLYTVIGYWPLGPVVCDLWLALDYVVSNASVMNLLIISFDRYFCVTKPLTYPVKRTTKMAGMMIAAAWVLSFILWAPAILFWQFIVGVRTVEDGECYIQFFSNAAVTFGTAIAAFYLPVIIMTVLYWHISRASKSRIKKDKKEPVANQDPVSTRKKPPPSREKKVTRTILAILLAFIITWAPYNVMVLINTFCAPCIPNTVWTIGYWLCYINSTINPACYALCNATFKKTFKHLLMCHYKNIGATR

Chain of hβ1AR (human) (P08588 other isoform, or with tags, fused parts or gaps): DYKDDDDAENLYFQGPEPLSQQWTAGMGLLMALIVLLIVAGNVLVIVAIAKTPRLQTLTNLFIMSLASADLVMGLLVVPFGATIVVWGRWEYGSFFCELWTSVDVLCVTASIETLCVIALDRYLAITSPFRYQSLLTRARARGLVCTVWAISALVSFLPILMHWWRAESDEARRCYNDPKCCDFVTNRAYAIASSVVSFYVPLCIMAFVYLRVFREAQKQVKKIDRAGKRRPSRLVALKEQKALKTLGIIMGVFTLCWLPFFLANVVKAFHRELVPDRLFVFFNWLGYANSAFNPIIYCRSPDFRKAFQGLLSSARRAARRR

B1: Nb80 (VHH)
VHH: QVQLQESGGGLVQAGGSLRLSCAASGSIFSINTMGWYRQAPGKQRELVAAIHSGGSTNYANSVKGRFTISRDNAANTVYLQMNSLKPEDTAVYYCNVKDYGAVLYEYDYWGQGTQVTVSS
IC50 ratio, ICI-118,551: IC50 hβ1AR-Nb69 / IC50high hβ1AR-Nb80 fusion (hβ1AR (human)): 0.077 | IC50 ratio, alprenolol: IC50 hβ1AR-Nb69 / IC50high hβ1AR-Nb80 fusion (hβ1AR (human)): 0.988 | IC50 ratio, epinephrine: IC50 hβ1AR-Nb69 / IC50high hβ1AR-Nb80 fusion ([3H]-DHA competition, Sf9 membranes) (hβ1AR (human)): 68.7 | IC50 ratio, ICI-118,551: β2AR365N-Nb69 mock fusion / β2AR365N-Nb80 fusion (β2AR365N (human)): 0.023 | IC50 ratio, alprenolol: β2AR365N-Nb69 mock fusion / β2AR365N-Nb80 fusion (β2AR365N (human)): 4 | IC50 ratio, carvedilol: non-fused β2AR365N / β2AR365N-Nb80 fusion (β2AR365N (human)): 0.22 | IC50 ratio, carvedilol: β2AR365N-Nb69 mock fusion / β2AR365N-Nb80 fusion (β2AR365N (human)): 0.4 | IC50 ratio, epinephrine: non-fused β2AR365N / β2AR365N-Nb80 fusion (β2AR365N (human)): 1380 | IC50 ratio, epinephrine: β2AR365N-Nb69 mock fusion / β2AR365N-Nb80 fusion ([3H]-DHA competition; Nb fused to the receptor) (β2AR365N (human)): 2070 | IC50 ratio, isoproterenol: β2AR365N-Nb69 mock fusion / β2AR365N-Nb80 fusion (β2AR365N (human)): 670 | IC50 ratio, salbutamol: β2AR365N-Nb69 mock fusion / β2AR365N-Nb80 fusion (β2AR365N (human)): 373 | apparent potency shift, compound 9: IC50 β2AR365N-Nb69 / IC50 β2AR365N-Nb80 fusion (β2AR365N (human)): 71 | apparent potency shift, compound 10: IC50 β2AR365N-Nb69 / IC50 β2AR365N-Nb80 fusion (β2AR365N (human)): 94 | apparent potency shift, epinephrine: Nb80 fusion compared to Nb69 fusion (Example 19 experiment) (β2AR365N (human)): 855 | apparent potency shift, fragment CC56213: IC50 β2AR365N-Nb69 / IC50 β2AR365N-Nb80 fusion (β2AR365N (human)): 22 | apparent potency shift, isoprotenerol: Nb80 fusion compared to Nb69 fusion (Example 19 experiment) (β2AR365N (human)): 155 | concentration of exogenous Nb80 at which the epinephrine IC50 of non-fused β2AR365N equals that of the fusion (β2AR365N (human)): 5 µM | effective intramolecular concentration of Nb80 in the β2AR365N-Nb80 fusion (β2AR365N (human)): > 500 nM | epinephrine potency shift: IC50 of the mock fusion / IC50 of non-fused β2AR365N with 500 nM exogenous Nb80 (β2AR365N (human)): 87 fold | epinephrine potency shift: IC50 of the mock fusion / IC50 of the β2AR365N-Nb80 fusion (Nb80 fused to the receptor) (β2AR365N (human)): 534 fold | molar excess of exogenous Nb80 over β2AR needed to match the fusion (β2AR365N (human)): 12500 fold

B2: Nb71 (VHH)
VHH: QVQLQESGGGLVQPGGSLRLSCAASGFAFSSYELRWYRQAPGKQHELVAGITTGGNTYYADSVKGRFTISRDNAKNTVYLQMSNLRPEDTAVYACNANWDLLSDYWGQGTQVTVSS
IC50 ratio, ICI-118,551: β2AR365N-Nb69 mock fusion / β2AR365N-Nb71 fusion (β2AR365N (human)): 0.01 | IC50 ratio, alprenolol: β2AR365N-Nb69 mock fusion / β2AR365N-Nb71 fusion (β2AR365N (human)): 1.5 | IC50 ratio, carvedilol: β2AR365N-Nb69 mock fusion / β2AR365N-Nb71 fusion (β2AR365N (human)): 0.6 | IC50 ratio, epinephrine: β2AR365N-Nb69 mock fusion / β2AR365N-Nb71 fusion (β2AR365N (human)): 2030 | IC50 ratio, isoproterenol: β2AR365N-Nb69 mock fusion / β2AR365N-Nb71 fusion (β2AR365N (human)): 80 | IC50 ratio, salbutamol: β2AR365N-Nb69 mock fusion / β2AR365N-Nb71 fusion (β2AR365N (human)): 454

B3: Nb9-1 (VHH)
VHH: QVQLQESGGGLVQAGGSLRLSCAASGHTFSSARMYWVRQAPGKEREFVAAISRSGFTYSADSVKGRFTISRDIANNTVYLQMNSLQPEDTAIYTCYAAYLDEFYNDYTHYWGLGTQVTVSS
IC50 ratio, carbachol: IC50 M2Δi3R / IC50high M2Δi3R-Nb9-1 fusion ([3H]-NMS competition, Sf9 membranes) (M2Δi3R (human)): 67.2 | IC50 ratio, oxotremorine M: IC50 M2Δi3R / IC50high M2Δi3R-Nb9-1 fusion (M2Δi3R (human)): 316
